In paper PMC5813253:

Key:
[1] = biological target: TssK (V. cholerae (endogenous)); assay: cryo-EM structure
[2] = biological target: VgrG trimer of the central spike (V. cholerae (endogenous)); assay: cryo-EM structure

Substance | stoichiometry N [1] | stoichiometry N [2]
TssK (natural protein) | 3 | 
VgrG trimer of the central spike |  | 3
